localisation_or_trafficking data for two proteins are collected here from article PMC3893532.

This series can be described thus: confocal immunofluorescence, transfected hippocampal neurons. Conditions: glycan lost; control: wild-type seipin.

B1: seipin: N88S (protein)
parent chain: MVNDPPVPALLWAQEVGQVLAGRARRLLLQFGVLFCTILLLLWVSVFLYGSFYYSYMPTVSHLSPVHFYYRTDCDSSTTSLCSFPVANVSLTKGGRDRVLMYGQPYRVTLELELPESPVNQDLGMFLVTISCYTRGGRIISTSSRSVMLHYRSDLLQMLDTLVFSSLLLFGFAEQKQLLEVELYADYRENSYVPTTGAIIEIHSKRIQLYGAYLRIHAHFTGLRYLLYNFPMTCAFIGVASNFTFLSVIVLFSYMQWVWGGIWPRHRFSLQVNIRKRDNSRKEVQRRISAHQPGPEGQEESTPQSDVTEDGESPEDPSGTEGQLSEEEKPDQQPLSGEEELEPEASDGSGSWEDAALLTEANLPAPAPASASAPVLETLGSSEPAGGALRQRPTCSSS
For B1, the localisation_or_trafficking entry is recorded as “changes”.

B2: seipin: S90L (protein)
parent chain: B1 parent chain
Take B2: the localisation_or_trafficking entry was “changes”.
